Source: patent publication US20190030156A1

Target: prefusion F hybrid: RSV F (S155C/S290C plus A102C/I148C) with transmembrane domain and cytoplasmic tail of hMPV F, on VLPs (human respiratory syncytial virus; human metapneumovirus) (UniProt P12568)
Experiment: dot blot of VLPs, 5C4 signal normalized over Palivizumab, 3 independent experiments

Substance: 5C4, a mouse monoclonal antibody (mAb) specific for the prefusion-only antigen site Φ
- fold recognition relative to postfusion F: 19.2 fold
